Sequences and labels used below:
B1: EGF (ligand, UniProt P01133 971-1023, looked up)
chain: NSDSECPLSHDGYCLHDGVCMYIEALDKYACNCVVGYIGERCQYRDLKWWELR
B3: IIICS, variably-spliced domain of fibronectin (other, human)
chain: MGSDELPQLVTLPHPNLHGPEILDVPSTVQKTPFVTHPGYDTGNGIQLPGTSGQQPSVGQQMIFEEHGFRRTTPPTTATPIRHRPRPYPPNVGEEIQIGHIPREDVDYHLYPHGPGLNPNASTTSHHHHHHC
notes: domain: IIICS; The IIICS construct is not described separately

One experiment has as its target T1, FNIII1-7 (human, UniProt P02751 610-1266, limits assumed).
T1 construct: domain: FNIII1-7; This construct is not described separately
As to the kind of experiment: equilibrium and kinetic binding.

In the next experiment the target is T2, FNIII3-6 (human, UniProt P02751 813-1175, limits assumed).
T2 construct: domain: FNIII3-6; Recombinant; also called FNII3-6 [sic]
As to the kind of experiment: equilibrium and kinetic binding.

For experiment [1], the target named is T3, FN70, the 70 kDa amino terminus of fibronectin (UniProt P02751 32-608, limits assumed).
T3 construct: domain: FN70 (70 kDa amino terminus); also called amino-terminal end of FN
As to the kind of experiment: equilibrium and kinetic binding.

Experiment [2] deals with T4, FNIII8-11 (C), classic cell-binding domain of fibronectin containing RGD (human, UniProt P02751 1358-1721).
T4 construct: domain: FNIII8-11; Recombinant
T4 sequence (P02751 other isoform, or with tags, fused parts or gaps limits assumed): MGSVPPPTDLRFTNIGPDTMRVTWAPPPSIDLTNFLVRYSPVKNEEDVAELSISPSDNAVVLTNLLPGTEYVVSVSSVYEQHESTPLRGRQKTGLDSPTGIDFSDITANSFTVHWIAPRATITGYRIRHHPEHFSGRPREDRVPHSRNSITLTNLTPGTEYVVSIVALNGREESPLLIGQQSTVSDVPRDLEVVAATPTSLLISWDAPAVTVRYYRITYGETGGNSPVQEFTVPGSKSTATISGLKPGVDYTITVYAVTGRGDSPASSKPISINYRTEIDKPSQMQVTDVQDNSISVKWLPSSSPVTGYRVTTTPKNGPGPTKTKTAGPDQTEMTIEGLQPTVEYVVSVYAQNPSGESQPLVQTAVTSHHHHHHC
As to the kind of experiment: equilibrium and kinetic binding.

The target of experiment [3] is T5, FNIII12-V15 (HV), composite heparinII-binding and variably-spliced IIICS domains of fibronectin (human, UniProt P02751 1812-2288).
T5 construct: domain: FNIII12-V15; Recombinant, from E. coli; Some constructs carry GST at the C-terminus
As to the kind of experiment: plasmon resonance modulation.

Another experiment concerns the target T6, FNIII2 (human, UniProt P02751 722-812, limits assumed).
T6 construct: domain: FNIII2; Recombinant
The experiment is described as follows: binding to FN functional domains.

In another experiment the target is T7, FNIII12-14 (human, UniProt P02751 1812-2082).
T7 construct: domain: FNIII12-14; Recombinant
As to the kind of experiment: binding to FN functional domains.

The target of a further experiment is T8, FNIII1 (human, UniProt P02751 610-702, limits assumed).
T8 construct: domain: FNIII1; Recombinant; also called FNIIII [sic]
As to the kind of experiment: binding to FN functional domains.

The next experiment addresses T9, FNIII1-2 (human, UniProt P02751 610-812, limits assumed).
T9 construct: domain: FNIII1-2; Recombinant
The experiment is described as follows: binding to FN functional domains.

Experiment [4] concerns the target T10, FNIII12-15 (H), heparinII-binding domain of fibronectin (human, UniProt P02751-10 1631-1987).
T10 construct: domain: FNIII12-15; Recombinant
The experiment is described as follows: binding to FN functional domains.

A further experiment has as its target T11, FNIII1-11 (human, UniProt P02751-8 610-1630).
T11 construct: domain: FNIII1-11; Recombinant
The experiment is described as follows: binding to FN functional domains.

Experiment [5] deals with B3. As to the kind of experiment: binding to FN functional domains.
For experiment [6], the target named is T12, intact human plasma fibronectin (FN) (human, UniProt P02751 32-2477).
T12 construct: Adsorbed to plastic or coupled to agarose beads in the assays; The background calls plasma FN a disulfide-linked dimer; also called intact FN
T12 sequence (P02751 other isoform, or with tags, fused parts or gaps limits assumed): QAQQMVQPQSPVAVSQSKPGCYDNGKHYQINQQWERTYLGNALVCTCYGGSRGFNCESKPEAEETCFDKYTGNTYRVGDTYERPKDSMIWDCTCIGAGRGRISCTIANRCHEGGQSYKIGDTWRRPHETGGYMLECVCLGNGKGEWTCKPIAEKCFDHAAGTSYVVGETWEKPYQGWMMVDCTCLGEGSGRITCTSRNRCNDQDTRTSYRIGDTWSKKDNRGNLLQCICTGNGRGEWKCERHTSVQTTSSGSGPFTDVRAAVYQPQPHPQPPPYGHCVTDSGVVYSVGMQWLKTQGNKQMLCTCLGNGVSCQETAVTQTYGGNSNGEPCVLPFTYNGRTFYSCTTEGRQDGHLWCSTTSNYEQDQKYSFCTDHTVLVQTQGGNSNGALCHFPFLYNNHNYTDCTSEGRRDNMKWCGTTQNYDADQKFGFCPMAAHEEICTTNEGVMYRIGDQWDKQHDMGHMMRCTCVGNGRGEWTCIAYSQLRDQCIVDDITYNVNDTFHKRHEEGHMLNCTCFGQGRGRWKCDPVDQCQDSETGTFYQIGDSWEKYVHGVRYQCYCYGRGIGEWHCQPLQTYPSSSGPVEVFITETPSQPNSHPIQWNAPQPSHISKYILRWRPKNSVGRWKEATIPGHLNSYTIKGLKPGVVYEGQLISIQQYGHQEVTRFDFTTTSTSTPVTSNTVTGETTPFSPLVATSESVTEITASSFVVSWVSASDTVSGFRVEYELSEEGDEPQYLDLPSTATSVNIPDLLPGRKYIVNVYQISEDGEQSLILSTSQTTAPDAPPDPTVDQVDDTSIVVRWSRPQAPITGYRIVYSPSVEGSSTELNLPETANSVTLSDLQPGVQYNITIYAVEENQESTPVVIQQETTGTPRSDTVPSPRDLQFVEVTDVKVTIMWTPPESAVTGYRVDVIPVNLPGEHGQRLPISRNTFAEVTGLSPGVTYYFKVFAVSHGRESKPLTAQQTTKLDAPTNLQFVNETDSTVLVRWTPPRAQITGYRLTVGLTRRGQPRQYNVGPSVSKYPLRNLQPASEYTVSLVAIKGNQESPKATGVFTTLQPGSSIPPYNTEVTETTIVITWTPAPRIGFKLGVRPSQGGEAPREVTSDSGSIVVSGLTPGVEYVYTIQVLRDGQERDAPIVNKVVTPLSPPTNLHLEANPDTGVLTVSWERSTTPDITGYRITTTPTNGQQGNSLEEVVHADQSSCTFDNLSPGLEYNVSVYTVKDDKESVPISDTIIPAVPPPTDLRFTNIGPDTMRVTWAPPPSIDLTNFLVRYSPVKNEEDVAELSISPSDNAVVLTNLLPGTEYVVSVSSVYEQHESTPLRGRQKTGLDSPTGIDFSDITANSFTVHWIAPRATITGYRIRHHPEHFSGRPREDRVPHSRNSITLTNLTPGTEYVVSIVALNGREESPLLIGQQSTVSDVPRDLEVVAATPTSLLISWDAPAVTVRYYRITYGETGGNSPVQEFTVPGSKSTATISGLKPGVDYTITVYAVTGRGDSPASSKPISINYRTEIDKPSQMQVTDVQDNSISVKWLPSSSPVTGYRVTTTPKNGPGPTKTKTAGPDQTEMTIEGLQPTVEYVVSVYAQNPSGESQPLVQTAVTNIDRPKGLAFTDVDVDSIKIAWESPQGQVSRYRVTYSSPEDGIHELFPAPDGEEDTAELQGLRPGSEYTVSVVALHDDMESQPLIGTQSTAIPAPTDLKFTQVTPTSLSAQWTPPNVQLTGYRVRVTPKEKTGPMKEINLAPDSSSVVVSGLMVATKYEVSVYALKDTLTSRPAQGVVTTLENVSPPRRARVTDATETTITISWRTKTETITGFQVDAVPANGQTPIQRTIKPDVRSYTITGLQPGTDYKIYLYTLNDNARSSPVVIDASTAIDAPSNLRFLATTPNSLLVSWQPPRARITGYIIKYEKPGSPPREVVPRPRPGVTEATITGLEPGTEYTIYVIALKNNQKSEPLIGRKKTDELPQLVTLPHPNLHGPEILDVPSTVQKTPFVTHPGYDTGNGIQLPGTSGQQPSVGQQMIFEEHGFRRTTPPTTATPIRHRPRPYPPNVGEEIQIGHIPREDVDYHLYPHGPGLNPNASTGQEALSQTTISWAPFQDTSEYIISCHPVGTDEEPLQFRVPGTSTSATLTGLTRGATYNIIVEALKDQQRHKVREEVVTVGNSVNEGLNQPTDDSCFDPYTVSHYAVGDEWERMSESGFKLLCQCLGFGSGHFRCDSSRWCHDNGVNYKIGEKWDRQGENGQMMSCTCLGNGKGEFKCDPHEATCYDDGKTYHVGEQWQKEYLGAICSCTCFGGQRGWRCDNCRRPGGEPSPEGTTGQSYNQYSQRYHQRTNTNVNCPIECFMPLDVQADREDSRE
The experiment is described as follows: equilibrium binding to FN adsorbed to a surface or coupled to agarose beads.

The target of the next experiment is TGF-α (UniProt P01135 40-89). The experiment is described as follows: equilibrium and kinetic binding.
Chain of TGF-α (P01135 40-89 limits assumed): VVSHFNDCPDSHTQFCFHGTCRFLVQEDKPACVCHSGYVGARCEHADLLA
The target in the experiment “EGF” is B1. The experiment is described as follows: equilibrium and kinetic binding.
A further experiment has as its target FGF-1 (UniProt P05230 16-155, limits assumed). As to the kind of experiment: equilibrium and kinetic binding.
For experiment [7], the target named is T13, basic fibroblast growth factor (bFGF, FGF-2) (human, UniProt P09038 143-288, limits assumed). As to the kind of experiment: peptide binding to the GF.
T13 sequence (P09038 143-288 limits assumed): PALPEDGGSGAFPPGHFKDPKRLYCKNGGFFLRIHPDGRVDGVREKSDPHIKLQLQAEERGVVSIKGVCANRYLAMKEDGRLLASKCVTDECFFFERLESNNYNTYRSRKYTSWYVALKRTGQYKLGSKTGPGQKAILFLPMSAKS
Experiment [8] has as its target T13, basic fibroblast growth factor (bFGF, …). The experiment is described as follows: equilibrium or kinetic binding, not said which.
Experiment [9] shares this target. As to the kind of experiment: method not restated in the sentence.
Experiment [10] has as its target T12, intact human plasma fibronectin (FN). The experiment is described as follows: competition: I-125 TGF-β1 bound to intact human plasma FN adsorbed on plastic (0.125 µM, blocked with 2% BSA), 25°C, 2 h, with rising peptide; % of binding without peptide, n=3 [left panel]. The method, then:
(§1) Figure 9: FIG. 9. Inhibition of TGF-β1 and PDGF-BB binding to intact human plasma FN with TGF-β1 and PDGF-BB FN-binding peptides, respectively. FN was adsorbed onto tissue culture plastic at a concentration of 0.125 μM and then excess protein-binding sites of the plastic blocked with 2% bovine serum albumin. Growth factor labeled with I^125 was incubated with FN-coated plates at 25° C. for 2 hours in the presence or absence of peptide. Data was calculated as [(GF binding in presence of peptide–background)/(GF binding in absence of peptide-background)]×100. n=3.
(§2) Two of these synthetic peptides (homologous to TGF-β1 and homologous to PDGF-BB) inhibit TGF-β1 and PDGF-BB binding to FN respectively (FIG. 9). Inhibition of TGF-β1 and PDGF-BB binding to intact human plasma FN was determined as follows. FN was adsorbed onto tissue culture plastic at a concentration of 0.125 μM and then excess protein-binding sites of the plastic blocked with 2% bovine serum albumin. Growth factor labeled with I^125 was incubated with FN-coated plates at 25° C. for 2 hours in the presence or absence of peptide. For example, relative binding of TGF-β1 to immobilized FN was determined for increasing concentrations of the synthetic peptide homologous to TGF-β1. […] For example, relative binding of PDGF-BB to immobilized FN was determined for increasing concentrations of the synthetic peptide homologous to PDGF-BB. […]

For experiment [11] the target is unchanged. The experiment is described as follows: competition: I-125 PDGF-BB bound to intact human plasma FN adsorbed on plastic (0.125 µM, blocked with 2% BSA), 25°C, 2 h, with rising peptide; % of binding without peptide, n=3 [right panel]. The method, then: as §1, §2

Chain of FGF-1 (P05230 16-155 limits assumed): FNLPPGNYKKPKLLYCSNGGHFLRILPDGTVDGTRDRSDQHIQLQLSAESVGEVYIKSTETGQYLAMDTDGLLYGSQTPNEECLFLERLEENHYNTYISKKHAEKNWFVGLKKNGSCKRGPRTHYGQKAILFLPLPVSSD
T11 sequence (P02751 other isoform, or with tags, fused parts or gaps limits assumed): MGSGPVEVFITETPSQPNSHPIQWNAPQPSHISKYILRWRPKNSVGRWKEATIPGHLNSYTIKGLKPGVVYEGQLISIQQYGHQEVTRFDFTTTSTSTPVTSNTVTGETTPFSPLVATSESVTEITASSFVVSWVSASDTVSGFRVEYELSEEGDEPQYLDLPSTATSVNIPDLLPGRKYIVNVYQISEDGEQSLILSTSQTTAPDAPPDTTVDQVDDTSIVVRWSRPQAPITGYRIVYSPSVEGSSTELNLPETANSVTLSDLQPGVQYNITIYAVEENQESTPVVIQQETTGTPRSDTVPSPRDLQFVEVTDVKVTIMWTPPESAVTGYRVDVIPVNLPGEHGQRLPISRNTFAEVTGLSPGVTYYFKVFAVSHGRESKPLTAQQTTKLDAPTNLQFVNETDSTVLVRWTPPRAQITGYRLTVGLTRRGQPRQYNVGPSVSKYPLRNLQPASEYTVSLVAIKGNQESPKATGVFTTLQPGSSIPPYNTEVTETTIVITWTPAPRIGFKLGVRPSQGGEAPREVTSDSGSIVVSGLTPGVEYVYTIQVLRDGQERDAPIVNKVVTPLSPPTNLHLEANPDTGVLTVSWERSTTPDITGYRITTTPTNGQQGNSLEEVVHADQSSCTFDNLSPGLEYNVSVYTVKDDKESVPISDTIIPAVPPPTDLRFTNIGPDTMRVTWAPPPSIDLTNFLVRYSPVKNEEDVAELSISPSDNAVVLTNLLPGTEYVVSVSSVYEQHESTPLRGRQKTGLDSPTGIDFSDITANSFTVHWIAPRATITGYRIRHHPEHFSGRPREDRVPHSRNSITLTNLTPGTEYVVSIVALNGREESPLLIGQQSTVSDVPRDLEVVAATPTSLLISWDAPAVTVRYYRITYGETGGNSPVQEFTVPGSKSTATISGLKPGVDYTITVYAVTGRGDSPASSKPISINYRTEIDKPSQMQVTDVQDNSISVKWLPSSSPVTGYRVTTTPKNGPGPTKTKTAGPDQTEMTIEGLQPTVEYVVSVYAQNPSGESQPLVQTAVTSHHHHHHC
T9 sequence (P02751 other isoform, or with tags, fused parts or gaps limits assumed): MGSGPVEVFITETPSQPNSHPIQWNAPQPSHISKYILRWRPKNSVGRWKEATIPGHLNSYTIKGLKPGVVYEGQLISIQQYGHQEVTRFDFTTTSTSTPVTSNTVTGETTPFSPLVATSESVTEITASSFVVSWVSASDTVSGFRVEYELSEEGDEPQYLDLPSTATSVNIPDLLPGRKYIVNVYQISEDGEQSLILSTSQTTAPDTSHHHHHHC
T1 sequence (P02751 other isoform, or with tags, fused parts or gaps limits assumed): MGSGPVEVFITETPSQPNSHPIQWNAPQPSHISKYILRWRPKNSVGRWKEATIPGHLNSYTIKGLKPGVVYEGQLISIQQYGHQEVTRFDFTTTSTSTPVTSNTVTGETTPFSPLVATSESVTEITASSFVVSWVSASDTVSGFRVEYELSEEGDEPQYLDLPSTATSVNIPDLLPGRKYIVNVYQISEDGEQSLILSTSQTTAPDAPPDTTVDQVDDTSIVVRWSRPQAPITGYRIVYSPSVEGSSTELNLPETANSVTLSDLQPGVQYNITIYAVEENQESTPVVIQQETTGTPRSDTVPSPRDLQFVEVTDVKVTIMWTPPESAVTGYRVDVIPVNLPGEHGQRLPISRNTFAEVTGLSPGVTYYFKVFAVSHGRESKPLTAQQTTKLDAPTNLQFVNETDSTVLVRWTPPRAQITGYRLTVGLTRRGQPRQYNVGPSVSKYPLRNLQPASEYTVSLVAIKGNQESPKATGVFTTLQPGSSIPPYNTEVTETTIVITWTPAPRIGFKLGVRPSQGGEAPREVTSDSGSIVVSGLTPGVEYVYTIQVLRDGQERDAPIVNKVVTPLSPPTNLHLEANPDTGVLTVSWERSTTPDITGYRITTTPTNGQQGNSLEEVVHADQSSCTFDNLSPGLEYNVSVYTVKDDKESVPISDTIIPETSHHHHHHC

For B1, the binding result (in the experiment with FNIII1-7; in the experiment with FNIII3-6; in experiment [1]; in experiment [2]; in [3]; with FNIII2) was “no binding” throughout. For the same molecule, the binding result (in the experiment with FNIII12-14; in the experiment with FNIII1; with FNIII1-2; in experiment [4]; with FNIII1-11; in [5]) was “no binding” throughout. For the same molecule, the binding result in experiment [6] is given as “no binding”.

For QLISIQQYGHQEVTRFDFTTTSTST (also called P2) [peptide 2 (FN680-704) QLISIQQYGHQEVTRFDFTTTSTST], the binding result with TGF-α was “no binding”; with EGF, “no binding”; with FGF-1, “no binding”; in experiment [7] it was “binds”.

B2: peptide 3 NGQTPIQRTIKPDVRSYTITGLQPGT (peptide)
peptide: NGQTPIQRTIKPDVRSYTITGLQPGT
notes: also called P3; FN1852-877 (so in the source)
For B2, the binding result with TGF-α is “no binding”; with EGF, “no binding”; with FGF-1, “no binding”; in [7], “binds”.

Take B3: in the experiment with FGF-1, the binding result is recorded as “no binding”. For the same molecule, the Kd in experiment [8] was 58 nM; in experiment [9] it was ~100 nM.

Regarding QPSVGQQMIFEEHGFRRTTPPTTAT (also called P4) [peptide 4 (FN2043-2067) QPSVGQQMIFEEHGFRRTTPPTTAT], the binding result was “no binding” with TGF-α, “no binding” with EGF, “no binding” in the experiment with FGF-1 and “binds” in experiment [7].

B4: peptide 1 (FN634-658) QPSHISKYILRWRPKNSVGRWKEAT (peptide)
peptide: QPSHISKYILRWRPKNSVGRWKEAT
notes: A Cys-tagged form was used in the FN-null cell assay; also called P1
Turning to B4, the binding result in the experiment with TGF-α is “no binding”; with EGF it was “no binding”; with FGF-1, “no binding”; in [7] it was “binds”.

With CCVRQLYIDFRKDLG [synthetic peptide homologous to TGF-β1, CCVRQLYIDFRKDLG], the “IC50 (read off the curve)” value in experiment [10] was ~8000 nM.

Consider CKTRTEVFEISRRLI [synthetic peptide homologous to PDGF-BB, CKTRTEVFEISRRLI], for which the binding result in [11] is recorded as “binds”.

(Values after patent publication US8759300 (RESEARCH FOUNDATION FOR THE STATE UNIVERSITY OF NEW YORK, dated 2014).)
